Assay results from patent publication US20030138894A1 (Human Genome Sciences, published 2003).
Positions of bridges follow the written chain, without caps; N, C: chain ends. No end group written: not given here.

B1: DX-513 Ac-GDLHACRPVRGDPWWACTLGDPEGGG-NH2 (peptide)
peptide: Ac-GDLHACRPVRGDPWWACTLGDPEGGG-NH2
modifications: disulfide 6-17 (inferred); also: oxidized peptide
notes: synthetic, TN12 library; also called ACEH2-D8
B2: DX-512 Ac-GDRLHCKPQRQSPWMKCQHLDPEGGG-NH2 (peptide)
peptide: Ac-GDRLHCKPQRQSPWMKCQHLDPEGGG-NH2
modifications: disulfide 6-17 (inferred); also: oxidized peptide
notes: synthetic, TN12 library; also called B-H7
B3: DX-601 Ac-GDGFTCSPIRMFPWFRCDLGDPEGGG-NH2 (peptide)
peptide: Ac-GDGFTCSPIRMFPWFRCDLGDPEGGG-NH2
modifications: disulfide 6-17 (inferred); not fully specified; printed as Ac-GDGFTCSPIRMFPWFRCDLGDPEGGG-NH2
B4: ACE-2 binding polypeptide RYLCLPQRDKPWKFCNWF (peptide)
peptide: RYLCLPQRDKPWKFCNWF
modifications: not fully specified (N-terminus, C-terminus, bridges); cysteine pairing not given here
B5: ACE-2 binding polypeptide QKECKFGYPHCLPW (peptide)
peptide: QKECKFGYPHCLPW
modifications: not fully specified (N-terminus, C-terminus, bridges); cysteine pairing not given here
B6: ACE-2 binding polypeptide WAVCFDWEN-CGDK (peptide)
peptide: WAVCFDWENCGDK
modifications: not fully specified (bridges); printed as W A V C F D W E N - C G D K; cysteine pairing not given here
notes: one position printed as '-'
B7: ACE-2 binding polypeptide WEVCHWAPMMCKHG (peptide)
peptide: WEVCHWAPMMCKHG
modifications: not fully specified (N-terminus, C-terminus, bridges); cysteine pairing not given here
B8: ACE-2 binding polypeptide SDWCGTWNNPCFHQ (peptide)
peptide: SDWCGTWNNPCFHQ
modifications: not fully specified (N-terminus, C-terminus, bridges); cysteine pairing not given here
B9: ACE-2 binding polypeptide YSHCSPLRYYPWWKCTYP (peptide)
peptide: YSHCSPLRYYPWWKCTYP
modifications: not fully specified (N-terminus, C-terminus, bridges); cysteine pairing not given here
B10: ACE-2 binding polypeptide RLHCKPQRQSPWMKCQHL (peptide)
peptide: RLHCKPQRQSPWMKCQHL
modifications: not fully specified (N-terminus, C-terminus, bridges); cysteine pairing not given here
B11: ACE-2 binding polypeptide VYFCFDWEQDCDEM (peptide)
peptide: VYFCFDWEQDCDEM
modifications: not fully specified (N-terminus, C-terminus, bridges); cysteine pairing not given here

target: T1, recombinant human-ACE-2 (human, UniProt Q9BYF1 18-740, limits assumed); test: cell-based or functional assay
T1 sequence (Q9BYF1 18-740 limits assumed): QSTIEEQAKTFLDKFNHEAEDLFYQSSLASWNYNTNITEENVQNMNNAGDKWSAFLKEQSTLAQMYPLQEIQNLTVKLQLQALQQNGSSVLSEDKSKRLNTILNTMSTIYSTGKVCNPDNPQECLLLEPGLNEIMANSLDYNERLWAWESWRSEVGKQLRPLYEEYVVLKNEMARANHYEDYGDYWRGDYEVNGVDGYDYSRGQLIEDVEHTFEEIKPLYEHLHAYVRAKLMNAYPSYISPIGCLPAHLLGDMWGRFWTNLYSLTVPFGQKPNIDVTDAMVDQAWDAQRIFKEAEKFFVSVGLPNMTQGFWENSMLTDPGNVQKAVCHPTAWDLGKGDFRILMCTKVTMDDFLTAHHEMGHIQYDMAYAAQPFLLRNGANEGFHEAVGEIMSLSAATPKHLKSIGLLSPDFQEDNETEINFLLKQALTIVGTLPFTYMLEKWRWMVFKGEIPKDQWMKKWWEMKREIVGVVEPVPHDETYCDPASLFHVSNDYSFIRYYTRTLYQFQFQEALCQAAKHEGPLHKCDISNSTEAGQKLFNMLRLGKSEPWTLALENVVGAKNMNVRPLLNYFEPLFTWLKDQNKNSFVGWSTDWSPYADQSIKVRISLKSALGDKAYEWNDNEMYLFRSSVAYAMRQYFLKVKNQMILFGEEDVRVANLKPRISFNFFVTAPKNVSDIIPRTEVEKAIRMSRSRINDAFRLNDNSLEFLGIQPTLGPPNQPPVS

IC50 [nM] | Binder
90 | B1
140 | Ac-GDRYLCLPQRDKPWKFCNWFDPEGGG-NH2 (disulfide 6-17 (inferred); also: oxidized peptide) [DX-599 Ac-GDRYLCLPQRDKPWKFCNWFDPEGGG-NH2]
30000 | Ac-AGQKECKFGYPHCLPWGTEGGG-NH2 (disulfide 6-13 (inferred); also: oxidized peptide) [DX-530 Ac-AGQKECKFGYPHCLPWGTEGGG-NH2]
60 | B2
68 | B3
120 | Ac-GDFSPCKALRHSPWWVCPSGDPEGGG-NH2 (disulfide 6-17 (inferred); also: oxidized peptide) [DX-602 Ac-GDFSPCKALRHSPWWVCPSGDPEGGG-NH2]
1000 | Ac-GSRGFCRDSSCSFPAPGEGGG-NH2 (disulfide 6-11 (inferred); also: oxidized peptide) [DX-525 Ac-GSRGFCRDSSCSFPAPGEGGG-NH2]
500 | Ac-AGSDWCGTWNNPCFHQGTEGGG-NH2 (disulfide 6-13 (inferred); also: oxidized peptide) [DX-531 Ac-AGSDWCGTWNNPCFHQGTEGGG-NH2]
600 | Ac-GSRIGCRDSRCNWWAPGEGGG-NH2 (disulfide 6-11 (inferred); also: oxidized peptide) [DX-524 Ac-GSRIGCRDSRCNWWAPGEGGG-NH2]
400 | Ac-AGWEVCHWAPMMCKHGGTEGGG-NH2 (disulfide 6-13 (inferred); also: oxidized peptide) [DX-529 Ac-AGWEVCHWAPMMCKHGGTEGGG-NH2]

target: T2, FLAG-tagged ACE-2 target (human, UniProt Q9BYF1 18-740); test: phage ELISA on FLAG-ACE-2
T2 construct: range 1-740; obtained from Human Genome Sciences, Inc; also called FLAG-ACE-2; tagged human ACE-2; not shown: FLAG tag
Experimental: Phage enriched from the third round of selection were screened by ELISA for strong ACE-2 binders. Immulon 2 96-well plates (Dynatech) were coated with streptavidin for 1 hour at 37° C. and subsequently coated with anti-FLAG antibody for 1 hour at room temperature. Half of the plates were further coated with FLAG-ACE-2 as the target plates, and the other half of the plates were coated with FLAG peptide as background plates. The amount of each protein or peptide coated was 100 ng per well. The coated plates were then incubated for 1 hour at room temperature with 1:2 diluted overnight phage cultures that were made by inoculating phage from individual plaques into bacterial host cells. After being washed 7 times with PBST, the plates were incubated with HRP-conjugated anti-M13 antibody (Pharmacia) for 1 hour at room temperature, washed 5 times, developed with TMB peroxidase substrate solution (Kirkegaad & Perry Laboratories, Gaithersburg, Md.), and read at 630 nm on an ELISA plate reader.

T2 sequence (Q9BYF1 18-740 limits assumed): as the sequence (Q9BYF1 18-740 limits assumed) above

binding result | Binder
binds | WQFCFDWDLNCDLR (not fully specified (bridges); cysteine pairing not given here) [ACE-2 binding polypeptide WQFCFDWDLNCDLR]
binds | LEMCEALFCVEF (disulfide 4-9 (inferred); not fully specified (N-terminus, C-terminus)) [ACE-2 binding polypeptide LEMCEALFCVEF]
binds | WDHCNWAHPCSRK (not fully specified (bridges); cysteine pairing not given here) [ACE-2 binding polypeptide WDHCNWAHPCSRK]
binds | YQFCFDWETTCWLD (not fully specified (bridges); cysteine pairing not given here) [ACE-2 binding polypeptide YQFCFDWETTCWLD]
binds | YWFCFDWEEDANGHCGGN (not fully specified (bridges); cysteine pairing not given here) [ACE-2 binding polypeptide YWFCFDWEEDANGHCGGN]
binds | FQLCFDWEEECEES (not fully specified (bridges); cysteine pairing not given here) [ACE-2 binding polypeptide FQLCFDWEEECEES]
binds | LHACRPVRGDPWWACTLG (disulfide 4-15 (inferred); not fully specified (N-terminus, C-terminus)) [ACE-2 binding polypeptide LHACRPVRGDPWWACTLG]
binds | B4
binds | YEFCHYAPQECKHM (not fully specified (bridges); cysteine pairing not given here) [ACE-2 binding polypeptide YEFCHYAPQECKHM]
binds | B5
binds | MDHCTWYQPCVLK (not fully specified (bridges); cysteine pairing not given here) [ACE-2 binding polypeptide MDHCTWYQPCVLK]
binds | YEECHWRPMACSTH (not fully specified (bridges); cysteine pairing not given here) [ACE-2 binding polypeptide YEECHWRPMACSTH]
binds | B6
binds | EHNCTWWNPCWTT (not fully specified (bridges); cysteine pairing not given here) [ACE-2 binding polypeptide EHNCTWWNPCWTT]
binds | B7
binds | B8
binds | B9
binds | B10
binds | B11
binds | FLLCFDWDIDWEYGCQHH (not fully specified (bridges); cysteine pairing not given here) [ACE-2 binding polypeptide FLLCFDWDIDWEYGCQHH]

target: T1, recombinant human-ACE-2; test: fluorometric ACE-2 activity assay, M-2195 substrate
Experimental: Assay mixture was prepared first by pre-incubating (30 minutes, room temperature) the enzyme with the inhibitor (0.45 μg ([…]) ACE-2, 0-0.5 μM inhibitor rage, up to 90 […] volume with 100 mM TRIS pH 7.4, 0.1% Tween-20, 0.4% DMSO) in each well, in triplicate, by dispensing volumes using a repeat pipetter (Rainin) into a 96-well clear-bottom back plate (Costar, 07-200-590). […] Substrate stock (10 μL of 10× concentration) was added to each well to be tested in blocks of three vertically down the plate. The reaction was monitored on a Spectrafluor Plus (Tecan) at an excitation wavelength of 340 nm and an emission wavelength of 400 nm (+/−35 nm) every 30 seconds for a time period of 10 minutes.

Ki [nM] | Binder
150 | B1
150 | B2
